Test results as given in publication PMC8233511.
Like-named read-outs stand apart in the source and are kept apart here.

Legend:
Experiment in all cases: EMSA
[1] = target: T1, Oct4 POU domain homodimer (UniProt P20263 131-282)
[2] = target: T1, Oct4 POU domain homodimer; remark: listed apart in the source
Oct4 POU domain = Oct4 POU domain (UniProt P20263 131-282)
[3] = target: Oct4 POU domain;Sox2 HMG domain (mouse?;mouse?, UniProt P20263;P48432 131-282;43-111, |)
[4] = target: Oct4 POU domain;Sox17 HMG domain (mouse?;mouse?, UniProt P20263;Q61473 131-282;68-136, |)
Chain of Oct4 POU domain;Sox17 HMG domain (P20263 131-282, chain 1 of 2): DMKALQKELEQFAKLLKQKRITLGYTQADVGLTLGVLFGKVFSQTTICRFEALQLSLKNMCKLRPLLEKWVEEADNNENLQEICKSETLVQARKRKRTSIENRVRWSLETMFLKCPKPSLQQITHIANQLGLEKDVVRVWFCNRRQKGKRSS
Chain of Oct4 POU domain;Sox17 HMG domain (Q61473 68-136, chain 2 of 2): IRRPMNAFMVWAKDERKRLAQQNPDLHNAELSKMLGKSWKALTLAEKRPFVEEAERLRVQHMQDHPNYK

T1 sequence (P20263 131-282): as the sequence (P20263 131-282, chain 1 of 2) above
Chain of Oct4 POU domain;Sox2 HMG domain (P20263 131-282, chain 1 of 2): as above
Chain of Oct4 POU domain;Sox2 HMG domain (P48432 43-111, chain 2 of 2): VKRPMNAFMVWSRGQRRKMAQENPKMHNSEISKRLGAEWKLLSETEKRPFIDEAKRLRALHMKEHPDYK
Chain of Oct4 POU domain (P20263 131-282): as the sequence (P20263 131-282, chain 1 of 2) above

B1: MOREC4 (dsDNA)
DNA 1: GGCCTCATGCATATGCATGCGGCGG
DNA 2: CCGCCGCATGCATATGCATGAGGCC
binding result [1]: binds

B2: MOREA4 (dsDNA)
DNA 1: GCCGCCATGAATATTCATGCCGCCGC
DNA 2: GCGGCGGCATGAATATTCATGGCGGC
binding result [1]: binds

B3: PORE (dsDNA)
DNA 1: GGATCCATTTGCCTTTCAAATGTGG
DNA 2: CCACATTTGAAAGGCAAATGGATCC
binding result [2]: binds

B4: Octamer (dsDNA)
DNA 1: GGCGGCGGATGCAAATCGGCGGCGG
DNA 2: CCGCCGCCGATTTGCATCCGCCGCC
binding result (Oct4 POU domain): binds

B5: SoxOct canonical (dsDNA)
DNA 1: GCGGCATTGTCATGCAAATCGGCGG
DNA 2: CCGCCGATTTGCATGACAATGCCGC
binding result [3]: binds

B6: SoxOct compressed (dsDNA)
DNA 1: GGCGGCATTGTATGCAAATCGGCGG
DNA 2: CCGCCGATTTGCATACAATGCCGCC
binding result [4]: binds

B7: MOREA4+1 (dsDNA)
DNA 1: GCCGCCATGAATAATTCATGCCGCCG
DNA 2: CGGCGGCATGAATTATTCATGGCGGC
binding result [1]: binds
